Results on three molecules are retold here after paper PMC11093599 (The Journal of Clinical Investigation, 2024).

One data set concerns the target T1, AARS1^455 (Homo sapiens, UniProt P49588).
T1 construct: catalytic domain, residues 1-455, purified recombinant; tags and host only in supplement
T1 sequence (P49588 1-455): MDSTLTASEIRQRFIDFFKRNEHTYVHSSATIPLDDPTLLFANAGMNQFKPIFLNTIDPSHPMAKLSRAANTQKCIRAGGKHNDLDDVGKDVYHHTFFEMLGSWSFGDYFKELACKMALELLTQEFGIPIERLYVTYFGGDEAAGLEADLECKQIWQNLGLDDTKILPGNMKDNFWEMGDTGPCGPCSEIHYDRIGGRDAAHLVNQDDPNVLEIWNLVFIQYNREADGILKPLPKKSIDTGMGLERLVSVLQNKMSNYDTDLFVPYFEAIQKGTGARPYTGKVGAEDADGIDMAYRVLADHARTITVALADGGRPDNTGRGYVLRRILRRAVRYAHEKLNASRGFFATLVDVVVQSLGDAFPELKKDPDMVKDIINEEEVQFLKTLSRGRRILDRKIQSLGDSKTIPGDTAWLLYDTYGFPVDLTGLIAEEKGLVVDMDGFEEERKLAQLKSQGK
As to the kind of experiment: in vitro histone lactylation, pan-Klac immunoblot / mass spectrometry. It counts as biochemical. As to conditions: lactate and ATP present; dose-dependent; construct in Supplemental Figure 1F not told.

In another data set the target is TEAD1 (UniProt P28347 1-426). Description: EMSA; 10 mM Tris-HCl pH 7.5, 50 mM KCl, 1 mM DTT, 2% glycerol, 25 C, 1 h. As to conditions: protein: recombinant; (HS-TEAD1 in pull-down).
Chain of TEAD1 (P28347 whole entry): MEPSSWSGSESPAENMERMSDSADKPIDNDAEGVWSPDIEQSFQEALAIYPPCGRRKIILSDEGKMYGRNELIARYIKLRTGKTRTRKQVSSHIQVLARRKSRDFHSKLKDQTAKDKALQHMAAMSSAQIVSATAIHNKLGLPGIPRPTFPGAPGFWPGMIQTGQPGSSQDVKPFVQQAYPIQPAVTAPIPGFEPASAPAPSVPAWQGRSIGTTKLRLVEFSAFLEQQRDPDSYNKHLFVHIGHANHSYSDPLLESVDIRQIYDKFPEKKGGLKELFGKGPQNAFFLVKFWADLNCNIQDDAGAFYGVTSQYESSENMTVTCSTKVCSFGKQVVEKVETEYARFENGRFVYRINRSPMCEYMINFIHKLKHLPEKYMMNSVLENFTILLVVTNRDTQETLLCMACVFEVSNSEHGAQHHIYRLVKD
A further data set concerns the target YAP (1-291) (UniProt P46937 1-291). Description: EMSA; YAP alone; 10 mM Tris-HCl pH 7.5, 50 mM KCl, 1 mM DTT, 2% glycerol, 25 C, 1 h. The conditions noted are these: protein: recombinant; tags: MBP.
For the next data set, the target named is TEAD1;YAP (1-291) (human?;human?, UniProt P28347;P46937 1-426;1-291, |). Description: EMSA; supershift of probe by YAP-TEAD1; 10 mM Tris-HCl pH 7.5, 50 mM KCl, 1 mM DTT, 2% glycerol, 25 C, 1 h. As to conditions: protein: recombinant;recombinant; (HS-TEAD1 in pull-down); copies: 1;1.

Regarding `Nc1ncnc2c1ncn2[C@@H]1O[C@H](COP(=O)(O)O)[C@@H](O)[C@H]1O` [AMP], the inhibition entry against AARS1^455 is “inclusion of PPi, AMP, and the synthetic lactyl-AMS”. Same read-out and setting: to `O=P(O)(O)OP(=O)(O)O` [PPi] belongs “inclusion of PPi, AMP, and the synthetic lactyl-AMS”.

B1: AARS1 promoter probe (dsDNA)
DNA 1: CAGACAGGGCCTCGCTCTGTCGCCCAAGGAATGCAGTGTCACGATCAGGGCTCACTGCAG
DNA 2: CTGCAGTGAGCCCTGATCGTGACACTGCATTCCTTGGGCGACAGAGCGAGGCCCTGTCTG
Take B1: the results for the binding result with TEAD1, in the data set with YAP (1-291) and in the data set with TEAD1;YAP (1-291) were “binds”, “no binding” and “binds”, respectively.
